{"source": "patent US20020032166A1", "about": "“Biocompatible cationic detergents and uses therefor” (University Technology Corporation, priority 1992, published 2002)", "key": {"[1]": {"test": "Apparent water/1-octanol partition coefficient of SDS hydrophobic ion pair complexes", "text": "The relative solubilities in two phases is given in terms of an apparent partition coefficient. The apparent partition coefficient is defined as the ratio of the equilibrium concentration in an organic phase to that in an aqueous phase. The actual value of the apparent partition coefficient, P, is dependent on the two solvent systems employed. In all cases herein described, the organic phase is 1-octanol and the aqueous phase is water alone or with a minimal amount of HCl added.\n(§3) Apparent partition coefficients were measured by dissolving a peptide in 1.25 ml of an aqueous solution. Before SDS addition, the pH was measured on a Beckman pH meter. Upon addition of an SDS solution, the solutions turned cloudy and a precipitate formed immediately. An equal volume of 1-octanol was added and the mixtures agitated, and then left undisturbed for several hours. Prior to analysis, the tubes were spun for 10 minutes at 4000 g. Each layer was removed and the absorbance measured on a Beckman DU-64 UV-visible spectrophotometer using 1 cm quartz cells. All apparent partition coefficients were corrected for changes in pH with differing SDS concentrations.\nResults are described as logarithms of the apparent partition coefficient. A log P value of 0 means that the compound is equally soluble in water and the organic phase."}, "CCRF-CEM cells": {"tested_on": "CCRF-CEM cells", "test": "Cytotoxicity, MTS cell proliferation assay", "type": "cell-based, human", "settings": "for pIC50: Homo sapiens, 2-6 h exposure, 72 h growth, read-out: IC50 (half-maximal growth inhibition)", "excerpt": "(§1) The cytotoxicity of arginine dodecyl ester was investigated in cell culture with two types of cells (see Cory et al., Cancer Commun., 3, 207-212 (1991)): CCRF-CEM cells, a human T-cell leukemia cell line that grows in suspension (obtained from the American Type Culture Collection, ATCC); and a green monkey kidney cell line (COS-7) that grows in monolayers (also obtained from ATCC). For comparison, the cells were also exposed to […] bromide (DTAB) (Sigma).\n(§2) Cells were plated into 96-well plates (Corning) in a total of 200 μL Dulbecco's modified minimal essential medium for COS-7 cells, RPMI 1640 for CEM cells, supplemented with penicillin G (50 U/ml), streptomycin sulfate (50 μg/ml), and 10% fetal calf serum, at 10,000 cells/well for COS-7 amd 50,000 cells/well for CEM cells. The plates were incubated at 37° C. for 24 hours after plating. The cells were then exposed to various concentrations of the detergents. Each detergent concentration was used in 8 replicate wells. After 2-6 hours, media/detergent solutions were aspirated, and the wells were washed twice with PBS. For CEM suspension cells, centrifugation of the suspension at 1000×g for 5 min between each wash was required. After washing, 200 μL of fresh medium were added, and the cells were incubated for 72 hours. After 72 hours, cell proliferation was determined using the Promega CellTiter 96 AQueous Non-Radioactive Cell Proliferation Assay."}, "COS-7 cells [2]": {"tested_on": "COS-7 cells", "test": "Cytotoxicity, MTS cell proliferation assay", "type": "cell-based, green monkey", "settings": "for pIC50: Chlorocebus sabaeus, 2-6 h exposure, 72 h growth, read-out: IC50 (half-maximal growth inhibition)", "excerpt": "as §1, §2\nCC-CHOL was tested for cytotoxicity as described in Example 38 using COS-7 and JEG-3 cells. JEG-3 cells are a human choriocarcinoma cell line available from ATCC. The culture medium was Eagle's minimum essential medium containing 10% serum."}, "[3]": {"test": "Partitioning of anionic compounds with arginine esters", "type": "physicochemical", "method": "Stock solutions of the arginine esters were made by first dissolving the powder in 0.1 N HCl to give a 10 mM solution and then raising the pH to a value between 5 and 6. The pH should not be raised above 8.\nAnionic compounds were dissolved in pH 5.5 buffer (10 mM bis-tris propane, 10 mM CaCl2, 10 mM KCl). Appropriate amounts of the stock solution of arginine ester (see above), the anionic compound and buffer were mixed so that the final concentration of the anionic material was 1 mg/mL. An equal volume of organic solvent was added, and the samples were vortexed for 15 seconds on high speed. Layers were separated by centrifugation at 4000 rpm for 5 minutes. Concentrations of the anionic material in the aqueous and organic layers were determined by UV spectroscopy on a Beckman DU-64 series spectrophotometer."}, "COS-7 cells [4]": {"tested_on": "COS-7 cells", "test": "Transfection of pRSV400luc plasmid, luciferase activity", "type": "cell-based, green monkey", "settings": "no liposomes or helper lipids", "excerpt": "The plasmid used was pRSV400luc. It was obtained from Dr. David Gordon, Div. Endocrinology, University of Colorado School of Medicine, Denver, Colo. It was propagated in Escherichia coli strain DH5a (ATCC), isolated by a standard alkaline-SDS lysis procedure, and purified twice by isopycnic centrifugation on CsCl gradients (Sambrook et al., Molecular Cloning: A Laboratory Manual (Cold Spring Harbor Laboratory) (1989). COS-7 cells at approximately 50,000 cells per 60 mm diameter plate (Falcon) were used for transfection. Control experiments were done with Lipofectamine (GIBCO/Life Technologies, Gaithersburg, Md.).\nIn 200 total μL of serum-free medium, plasmid (20 μg) and Lipofectamine or arginine dodecyl ester were mixed and allowed to interact for 45 minutes. The volume was then brought to 1 mL with serum-free medium. Plates with cells were washed with serum-free medium. […]\nAfter allowing cells to grow and express gene product for 36-50 hours, the cells were harvested. […] Intensity of luminescence should be proportional to the amount of expressed luciferase and, therefore, the efficiency of transfection. “Background” is the reading from just the substrate mixture on the luminometer before addition of cell lysate. […] Any reading over 100 units is considered significant."}, "[5]": {"test": "Surface tension, critical micelle concentration", "type": "physicochemical", "settings": "in 0.1 N HCl", "method": "Surface tension was measured using a Fisher surface tensiometer. Briefly, a platinum iridium ring with a diameter of 6 cm was lowered into the appropriate dilution of detergent in 0.1 N HCl. Surface tension was read at the point where the force on the ring upwards caused the ring to break contact with the liquid surface."}, "[6]": {"test": "Solubility of arginine octyl ester powder", "type": "physicochemical"}, "[7]": {"test": "Thermal denaturation / melting point followed at 222 nm (CD, absorbance)", "type": "physicochemical", "method": "Both circular dichroism (CD) signal and light scattering (as measured by changes in absorbance) were measured at 222 nm and the melting point determined by an inflection point in the measured scan."}, "[8]": {"settings": "SDS-insulin complex", "experimental": "as §3"}, "[9]": {"settings": "aqueous solution; cited from earlier work"}, "[10]": {"test": "Apparent solubility of HIP complexes in organic solvents"}}, "note": "pIC50: −log10 of the molar value. Where “and” joins values, the source holds several entries; their conditions need not be identical. Identical values can stand only once. Like-named read-outs stand apart in the source and are kept apart here.", "data": [{"compound": "NC(=O)CC[C@@H]1NC(=O)[C@H](Cc2ccccc2)NC(=O)[C@H](Cc2ccc(O)cc2)NC(=O)[C@@H](N)CSSC[C@@H](C(=O)N2CCC[C@H]2C(=O)N[C@@H](CCCN=C(N)N)C(=O)NCC(N)=O)NC(=O)[C@H](CC(N)=O)NC1=O", "note": "[AVP, 8-Arg-vasopressin]", "values": [{"measurement": "increase of apparent partition coefficient on SDS addition", "setting": "[1]; 1-octanol/water, stoichiometric SDS", "value": "nearly four orders of magnitude"}]}, {"compound": "CCCCCCCCCCCCCC[N+](C)(C)C", "note": "[DTAB, tetradecyltrimethylammonium bromide, reference compound]", "values": [{"measurement": "pIC50", "setting": "CCRF-CEM cells", "value": 4.70}, {"measurement": "pIC50", "setting": "COS-7 cells [2]", "value": 4.10}]}, {"compound": "Nc1ncnc2c1ncn2[C@@H]1O[C@H](COP(=O)(O)OP(=O)(O)OP(=O)(O)O)[C@@H](O)[C@H]1O", "note": "[adenosine triphosphate]", "values": [{"measurement": "log p", "setting": "[3]; octanol/pH 5.5 buffer, pH 5.5, ester C12, detergent:anionic compound 1:1, solvent octanol, read-out: log p", "value": -1.48}, {"measurement": "log p", "setting": "[3]; octanol/pH 5.5 buffer, pH 5.5, ester C12, detergent:anionic compound 3:1, solvent octanol, read-out: log p", "value": 0.022}, {"measurement": "log p", "setting": "[3]; octanol/pH 5.5 buffer, pH 5.5, ester none, solvent octanol, pH 5.5 buffer, read-out: log p", "value": -3.23}]}, {"compound": "CCCCCCCCCCCCOC(=O)[C@@H](N)CCCNC(=N)N", "note": "[arginine dodecyl ester]", "values": [{"measurement": "toxicity relative to DTAB", "setting": "CCRF-CEM cells", "value": "seven-fold less toxicity"}, {"measurement": "pIC50", "setting": "CCRF-CEM cells", "value": 3.82}, {"measurement": "transfection of plasmid", "setting": "COS-7 cells [4]", "value": "promoted transection of the plasmid in a concentration and time dependent manner"}, {"measurement": "critical micelle concentration (cmc)", "setting": "[5]", "value": "approximately 0.3 mM and ~0.10 mg/ml"}, {"measurement": "toxicity relative to DTAB", "setting": "COS-7 cells [2]", "value": "approximately two-fold less toxicity"}, {"measurement": "pIC50", "setting": "COS-7 cells [2]", "value": 3.76}]}, {"compound": "CCCCCCCCOC(=O)[C@@H](N)CCCNC(=N)N", "note": "[arginine octyl ester]", "values": [{"measurement": "critical micelle concentration (cmc)", "setting": "[5]", "value": "about 6 mM and ~2.2 mg/ml"}, {"measurement": "solubility in HCl", "setting": "[6]; HCl", "value": "would only dissolve in 0.1 N or stronger HCl"}, {"measurement": "solubility in organics", "setting": "[6]; alcohols, hydrocarbons, aromatics, DMF, pyridine", "value": "insoluble"}, {"measurement": "solubility in water", "setting": "[6]; water", "value": "insoluble"}]}, {"compound": "Cc1ccc(S(=O)(=O)[O-])cc1.[Na+]", "note": "[p-toluenesulfonic acid, sodium salt]", "values": [{"measurement": "log p", "setting": "[3]; ester C8 (arginine octyl ester), solvent octanol, pH 5.5 buffer", "value": -0.353}, {"measurement": "log p", "setting": "[3]; ester C8, solvent isooctane, pH 5.5 buffer", "value": -2.2}, {"measurement": "log p", "setting": "[3]; ester C12 (arginine dodecyl ester), solvent octanol, pH 5.5 buffer", "value": -0.336}, {"measurement": "log p", "setting": "[3]; ester none, solvent isooctane, pH 5.5 buffer", "value": -2.7}, {"measurement": "log p", "setting": "[3]; ester none, solvent octanol, pH 5.5 buffer", "value": -1.62}]}, {"compound": "Gly-Phe", "values": [{"measurement": "partitioning into 1-octanol with SDS", "setting": "[1]; pH 3", "value": "mirrors the marked increase seen for Gly-Phe-NH2"}, {"measurement": "partitioning into 1-octanol with SDS", "setting": "[1]; pH 7 / neutral pH", "value": "little enhancement of the partition coefficient"}]}, {"compound": "Gly-Phe-NH2", "values": [{"measurement": "partitioning into 1-octanol with SDS", "setting": "[1]; pH 7 / neutral pH", "value": "readily partitions into 1-octanol"}]}, {"compound": "bovine serum albumin: bovine serum albumin, anionic test protein", "values": [{"measurement": "partitioning into octanol layer", "setting": "[3]; arginine dodecyl ester added, octanol", "value": "none would partition into octanol layer"}]}, {"compound": "hGH: human growth hormone; precipitate with SDS at pH 2", "values": [{"measurement": "solubility in 1-octanol", "setting": "pH 2", "value": "not found to be soluble"}, {"measurement": "aqueous solubility on addition of SDS", "setting": "pH 7.8", "value": "not affected"}]}, {"compound": "insulin-SDS complex: hydrophobic ion pair complex of insulin with sodium dodecyl sulfate", "values": [{"measurement": "structure after prolonged heating", "setting": "[7]; 1-octanol, 70° C. for more than 1 hour", "value": "appears to maintain its native structure"}, {"measurement": "melting point in 1-octanol", "setting": "[7]; SDS:insulin molar ratio 6:1, 200 ug/ml", "value": "about 116 °C"}, {"measurement": "melting point in 1-octanol, CD scan at 222 nm", "setting": "[7]; SDS:insulin molar ratio 9:1 (FIG. 10)", "value": 106, "unit": "°C"}, {"measurement": "melting point in 1-octanol, absorbance scan at 222 nm", "setting": "[7]; SDS:insulin molar ratio 9:1 (FIG. 11)", "value": 106, "unit": "°C"}]}, {"compound": "insulin: insulin, a hydrophilic protein; in Table 1 and in 1-octanol present as SDS complex", "values": [{"measurement": "Tm in 1-octanol above that observed in water", "setting": "[7]; 1-octanol vs water", "value": "more than 30 degrees"}, {"measurement": "Log P", "setting": "[8]; organic solvent 1-Chlorooctane", "value": "not detectable"}, {"measurement": "Log P", "setting": "[8]; organic solvent 1-octanol", "value": "≧ 1.2"}, {"measurement": "Log P", "setting": "[8]; organic solvent CCl4", "value": "not detectable"}, {"measurement": "Log P", "setting": "[8]; organic solvent CH2Cl2", "value": "not detectable"}, {"measurement": "Log P", "setting": "[8]; organic solvent Dimethoxyethane", "value": "not detectable"}, {"measurement": "Log P", "setting": "[8]; organic solvent Ether", "value": "not detectable"}, {"measurement": "Log P", "setting": "[8]; organic solvent Hexane", "value": "not detectable"}, {"measurement": "Log P", "setting": "[8]; organic solvent Mineral Oil", "value": "not detectable"}, {"measurement": "Tm of thermal denaturation", "setting": "[9]", "value": "about 65 °C"}, {"measurement": "Apparent Sol.", "setting": "[10]; SDS-insulin complex in 1-Chlorooctane", "value": "insoluble"}, {"measurement": "Apparent Sol.", "setting": "[10]; SDS-insulin complex in 1-octanol", "value": "≧ 1.0 mg/ml"}, {"measurement": "Apparent Sol.", "setting": "[10]; SDS-insulin complex in CCl4", "value": "insoluble"}, {"measurement": "Apparent Sol.", "setting": "[10]; SDS-insulin complex in CH2Cl2", "value": "insoluble"}, {"measurement": "Apparent Sol.", "setting": "[10]; SDS-insulin complex in DMF", "value": "≧ 1.0 mg/ml"}, {"measurement": "Apparent Sol.", "setting": "[10]; SDS-insulin complex in Ethanol", "value": "≧ 1.0 mg/ml"}, {"measurement": "Apparent Sol.", "setting": "[10]; SDS-insulin complex in Ether", "value": "insoluble"}, {"measurement": "Apparent Sol.", "setting": "[10]; SDS-insulin complex in Ethyl acetate", "value": "insoluble"}, {"measurement": "Apparent Sol.", "setting": "[10]; SDS-insulin complex in Hexane", "value": "insoluble"}, {"measurement": "Apparent Sol.", "setting": "[10]; SDS-insulin complex in Methanol", "value": "≧ 1.0 mg/ml"}, {"measurement": "Apparent Sol.", "setting": "[10]; SDS-insulin complex in Mineral Oil", "value": "insoluble"}, {"measurement": "Apparent Sol.", "setting": "[10]; SDS-insulin complex in NMP", "value": "≧ 1.0 mg/ml"}, {"measurement": "Apparent Sol.", "setting": "[10]; SDS-insulin complex in PEG 400", "value": "≧ 0.2 mg/ml"}, {"measurement": "Apparent Sol.", "setting": "[10]; SDS-insulin complex in Propylene Glycol", "value": "≧ 0.5 mg/ml"}, {"measurement": "Apparent Sol.", "setting": "[10]; SDS-insulin complex in TMP", "value": "≧ 0.2 mg/ml"}, {"measurement": "Apparent Sol.", "setting": "[10]; SDS-insulin complex in Trifluoroethanol", "value": "≧ 0.5 mg/ml"}, {"measurement": "Apparent Sol.", "setting": "[10]; SDS-insulin complex in Trimethyl phosphate", "value": "≧ 0.15 mg/ml"}, {"measurement": "Apparent Sol.", "setting": "[10]; SDS-insulin complex in i-Propanol", "value": "≧ 1.0 mg/ml"}]}]}
